Results reported in patent publication US20170137467A1 (CHROMOTEK, published 2017).
Positions count from the first letter of the chain named. Numbers in names are those of the source. Ends that are not written are not given here. * marks the point of attachment. Biotin = O=C1N[C@H]2[C@H](CS[C@H]2CCCCC(=O)*)N1; ethylene glycol linker = not defined here

B1: BC2 nanobody (VHH)
VHH: QVQLVESGGGLVQPGGSLTLSCTASGFTLDHYDIGWFRQAPGKEREGVSCINNSDDDTYYADSVKGRFTIFMDNAKDTVYLQMNSLKPEDTAIYYCAEARGCKRGRYEYDFWGQGTQVTVSS
notes: Alpaca VHH, 122 aa; also called BC2-Nb; BC2 nanotrap (BC2-Nb immobilized on agarose/Sepharose beads); not shown: C-terminal 6xHis-tag added by the pHEN6 vector
B2: BC2-Nb(R106E) (VHH)
VHH: B1 VHH with R106E
notes: Headlock mutant; immobilized on beads in the library pulldown

Assays:
[1] = target: T1, pTag1 peptide (PDRVRAVSHWSS), biotinylated (reading uncertain); test: biolayer interferometry, biotinylated peptide on Streptavidin biosensor; reference original BC2T (SEQ ID NO:4)
T1 construct: Immobilised on Streptavidin biosensors
T1 peptide: {Biotin-ethylene glycol linker}-PDRVRAVSHWSS
Procedure: Biolayer interferometry (BLI)-based affinity measurements were used to assess two improved variations of the original BC2T sequence (a: […], pTag1 SEQ ID NO:33; b: […], pTag2 SEQ ID NO:34) in comparison with the original BC2T sequence (c: BC2T SEQ ID NO:4).
The shaking rate was 1200 rpm. As a reference, each peptide was also incubated with BLItz buffer only according to the protocol above. […] The sensor was regenerated by sequential dips into 10 mM glycine pH 2.0 and BLItz buffer (repeated three times). Raw data were analysed using the software BLItz Pro (fortéBio) and a 1:1 binding model.

BC2T H9Q library peptide = target: T2, BC2T H9Q library peptide (human); test: peptide library pulldown on immobilized Nb, LC-MS of supernatant; ratio vs GFP-Nb control (1 = not captured, 0 = captured)
T2 peptide: Ac-PDRKAAVSQWQQ-NH2
How it was run: (§1)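 Unbound peptide left in supernatant after 1 h pulldown in PBS/0.01% CHAPS measured by reversed-phase LC-MS (8–30% eluent B gradient, 20 min).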

BC2T S8Q library peptide = target: T3, BC2T S8Q library peptide (human); test: as above
T3 construct: also called BC2TS8X: Q
T3 peptide: Ac-PDRKAAVQHWQQ-NH2
How it was run: as §1

[2] = target: T4, BC2T Q12E library peptide (human); test: as above
T4 peptide: Ac-PDRKAAVSHWQE-NH2
How it was run: as §1

BC2T H9F library peptide = target: T5, BC2T H9F library peptide (human); test: as above
T5 peptide: Ac-PDRKAAVSFWQQ-NH2
How it was run: as §1

BC2T H9R library peptide = target: T6, BC2T H9R library peptide (human); test: as above
T6 peptide: Ac-PDRKAAVSRWQQ-NH2
How it was run: as §1

[3] = target: T7, BC2T Q11E library peptide (human); test: as above
T7 peptide: Ac-PDRKAAVSHWEQ-NH2
How it was run: as §1

BC2T S8K library peptide = target: T8, BC2T S8K library peptide (human); test: as above
T8 construct: also called BC2TS8X: K
T8 peptide: Ac-PDRKAAVKHWQQ-NH2
How it was run: as §1

[4] = target: T9, BC2T Q12P library peptide (human); test: as above
T9 peptide: Ac-PDRKAAVSHWQP-NH2
How it was run: as §1

[5] = target: T10, BC2T W10H library peptide (human); test: as above
T10 construct: also called BC2TW10X: H
T10 peptide: Ac-PDRKAAVSHHQQ-NH2
How it was run: as §1

BC2T S8V library peptide = target: T11, BC2T S8V library peptide (human); test: as above
T11 construct: also called BC2TS8X: V
T11 peptide: Ac-PDRKAAVVHWQQ-NH2
How it was run: as §1

[6] = target: T12, BC2T Q12(I/L) library peptide, version 2 (N-terminal acetyl, C-terminal amide); test: as above
T12 construct: Ile and Leu versions are isobaric; two versions resolved but not assigned; also called I/L2
How it was run: as §1

[7] = target: T13, BC2T Q12M library peptide (human); test: as above
T13 peptide: Ac-PDRKAAVSHWQM-NH2
How it was run: as §1

[8] = target: T14, BC2T W10P library peptide (human); test: as above
T14 construct: also called BC2TW10X: P
T14 peptide: Ac-PDRKAAVSHPQQ-NH2
How it was run: as §1

BC2T S8T library peptide = target: T15, BC2T S8T library peptide (human); test: as above
T15 construct: also called BC2TS8X: T
T15 peptide: Ac-PDRKAAVTHWQQ-NH2
How it was run: as §1

BC2T S8G library peptide = target: T16, BC2T S8G library peptide (human); test: as above
T16 construct: also called BC2TS8X: G
T16 peptide: Ac-PDRKAAVGHWQQ-NH2
How it was run: as §1

[9] = target: T17, BC2T Q12A library peptide (human); test: as above
T17 peptide: Ac-PDRKAAVSHWQA-NH2
How it was run: as §1

BC2T H9S library peptide = target: T18, BC2T H9S library peptide (human); test: as above
T18 peptide: Ac-PDRKAAVSSWQQ-NH2
How it was run: as §1

Row | Binder | fold slower koff than for original BC2T [1] [fold] | ratio (BC2T H9Q library peptide) | ratio (BC2T S8Q library peptide) | ratio [2] | ratio (BC2T H9F library peptide) | ratio (BC2T H9R library peptide) | ratio [3] | ratio (BC2T S8K library peptide) | ratio [4] | ratio [5] | ratio (BC2T S8V library peptide) | ratio [6] | ratio [7] | ratio [8] | ratio (BC2T S8T library peptide) | ratio (BC2T S8G library peptide) | ratio [9] | ratio (BC2T H9S library peptide)
1 | B1 | 7 | – | – | – | – | – | – | – | – | – | – | – | – | – | – | – | – | –
2 | B2 | – | 0.3 | 0.9 | 0.6 | 0.2 | 0.1 | 0.4 | 0.9 | 0.1 | 1.2 | 0.2 | 0.1 | 0.2 | 1.1 | 0.1 | 0.8 | 0.1 | 0.4
